Assay results reported in US20230012273A1 (Boehringer Ingelheim, published 2023).

T1: cynoSIRPα (NP_001271679), Extracellular Domain + His-Tag (cynomolgus monkey)
T1 construct: also called CySIRPα NP_001271679; not shown: His-Tag
T1 chain: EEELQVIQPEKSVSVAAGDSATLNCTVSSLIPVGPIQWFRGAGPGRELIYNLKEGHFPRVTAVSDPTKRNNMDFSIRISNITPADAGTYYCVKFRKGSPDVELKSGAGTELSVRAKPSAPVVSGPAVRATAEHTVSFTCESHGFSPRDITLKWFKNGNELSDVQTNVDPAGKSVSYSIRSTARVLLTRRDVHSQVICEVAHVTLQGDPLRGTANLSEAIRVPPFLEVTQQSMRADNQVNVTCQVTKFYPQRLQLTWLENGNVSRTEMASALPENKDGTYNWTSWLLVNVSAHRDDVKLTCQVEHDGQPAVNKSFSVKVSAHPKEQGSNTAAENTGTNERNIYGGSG

T2: cynoSIRPα (EGM_02252), Extracellular Domain + His-Tag (cynomolgus monkey)
T2 construct: also called CySIRPα EGM_02252; not shown: His-Tag
T2 chain: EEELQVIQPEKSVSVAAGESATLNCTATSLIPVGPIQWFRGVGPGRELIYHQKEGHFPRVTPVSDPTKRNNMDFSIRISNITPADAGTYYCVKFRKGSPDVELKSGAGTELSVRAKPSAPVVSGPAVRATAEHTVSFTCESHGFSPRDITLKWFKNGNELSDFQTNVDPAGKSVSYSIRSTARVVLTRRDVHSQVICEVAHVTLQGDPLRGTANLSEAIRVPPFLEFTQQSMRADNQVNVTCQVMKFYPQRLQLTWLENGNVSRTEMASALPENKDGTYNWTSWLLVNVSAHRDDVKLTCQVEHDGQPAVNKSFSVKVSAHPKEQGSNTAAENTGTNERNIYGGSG

T3: cynoSIRPα (XP_015313155), Extracellular Domain + His-Tag (cynomolgus monkey)
T3 construct: also called CySIRPα XP_015313155; not shown: His-Tag
T3 chain: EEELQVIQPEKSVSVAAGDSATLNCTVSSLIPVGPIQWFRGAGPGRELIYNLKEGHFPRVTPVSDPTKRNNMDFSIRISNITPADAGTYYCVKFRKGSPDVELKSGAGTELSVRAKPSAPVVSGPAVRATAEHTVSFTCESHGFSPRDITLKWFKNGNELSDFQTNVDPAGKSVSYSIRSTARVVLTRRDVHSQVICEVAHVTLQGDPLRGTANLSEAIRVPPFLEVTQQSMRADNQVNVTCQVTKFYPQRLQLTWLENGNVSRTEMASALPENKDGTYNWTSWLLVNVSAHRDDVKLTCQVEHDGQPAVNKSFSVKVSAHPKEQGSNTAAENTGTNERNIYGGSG


Tests used:
[1] = biological target: T1, cynoSIRPα (NP_001271679), Extracellular …; test: SPR, antibody captured on Protein A/G, ECD-His analyte, steady-state fit
Method: (§1) The binding kinetics of anti-SIRPα antibodies to various SIRPα analytes are determined by surface plasmon resonance (SPR) using a Biacore 8K+(Cytiva). 1×HBS-EP+(Cytiva) is used as running buffer and for all the dilutions unless stated otherwise. The Series S CM5 sensorchip is activated with a 1:1 mixture of 0.1 M NHS (N-hydroxysuccinimide) and 0.4 M EDC (1-Ethyl-3-(3-dimethylaminopropyl) carbodiimide hydrochloride) for 420 seconds at a flow rate of 10 μl/min and immobilized with Protein A/G (Thermo Scientific, 10 μg/ml in 10 mM acetate pH 4.5) for 420 seconds at a flowrate of 10 μl/min resulting in approximately 3000 RU of Protein A/G on the surface. The sensorchip is then deactivated with 1 M ethanolamine HCl pH 8.5 for 420 seconds at a flowrate of 10 μl/min.
(§2) Antibodies (approximately 1 ug/ml) are captured on the Protein A/G surface for 60 seconds at a flowrate of 10 μl/min resulting in capture levels of approximately 240 RU. Dilutions of each SIRP protein (Extracellular Domain+His-Tag, with the concentrations as indicated) are injected as analytes over the captured antibody for 300 seconds of association at a flowrate of 30 μl/min, followed by a dissociation for 600 seconds.
(§3) The above procedures are used to measure binding properties of antibodies of the present disclosure. For each analyte used, the highest concentration was as indicated in Example 3 (see Table 36).

[2] = biological target: T2, cynoSIRPα (EGM_02252), Extracellular …; test: as above
Method: as §1, §2, §3

[3] = biological target: T3, cynoSIRPα (XP_015313155), Extracellular …; test: as above
Method: as §1, §2, §3

[4] = biological target: T4, Human SIRPαV1 (NP_542970.1), Extracellular Domain + His-Tag (human, UniProt P78324 31-373); test: SPR, antibody captured on Protein A/G, ECD-His analyte, 1:1 fit
T4 construct: also called huSIRPαV1; hSIRPαV1; not shown: His-Tag
Outline: (§4)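 Biacore 8K+ at HBS-EP+, with antibodies (~1 ug/ml) captured on Protein A/G CM5 surface to ~240 RU. SIRPα ECD-His analyte dilutions injected at 30 μl/min for 300 s association, 600 s dissociation.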

[5] = biological target: T5, Human SIRPαV2 (CAA71403.1), Extracellular Domain + His-Tag (human, UniProt P78324 31-373); test: as above
T5 construct: also called huSIRPαV2; hSIRPαV2; not shown: His-Tag
Outline: as §4

T4 sequence (P78324 other isoform, or with tags, fused parts or gaps): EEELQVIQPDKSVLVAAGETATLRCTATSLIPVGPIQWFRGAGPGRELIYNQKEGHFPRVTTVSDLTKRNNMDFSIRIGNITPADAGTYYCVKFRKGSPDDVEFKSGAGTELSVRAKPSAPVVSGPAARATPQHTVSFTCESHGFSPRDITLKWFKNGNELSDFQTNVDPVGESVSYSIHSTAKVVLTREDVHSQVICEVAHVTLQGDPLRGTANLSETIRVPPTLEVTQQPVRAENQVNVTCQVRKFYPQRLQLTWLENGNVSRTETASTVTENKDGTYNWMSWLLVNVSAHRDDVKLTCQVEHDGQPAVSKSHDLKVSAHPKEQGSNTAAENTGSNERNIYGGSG
T5 sequence (P78324 other isoform, or with tags, fused parts or gaps): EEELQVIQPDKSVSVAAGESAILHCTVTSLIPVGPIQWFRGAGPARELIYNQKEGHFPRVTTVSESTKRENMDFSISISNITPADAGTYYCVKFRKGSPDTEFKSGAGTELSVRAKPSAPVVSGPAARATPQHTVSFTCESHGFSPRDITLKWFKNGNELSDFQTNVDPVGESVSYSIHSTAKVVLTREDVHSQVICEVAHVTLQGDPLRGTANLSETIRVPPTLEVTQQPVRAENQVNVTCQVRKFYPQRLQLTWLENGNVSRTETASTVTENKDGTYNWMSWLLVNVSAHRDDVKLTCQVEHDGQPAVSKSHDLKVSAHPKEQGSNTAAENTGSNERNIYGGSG

| Binder | Kd [1] [nM] | Kd [2] [nM] | Kd [3] [nM] | Kd [4] [nM] | koff [4] [s⁻¹] | kon [4] [M⁻¹ s⁻¹] | Kd [5] [nM] | koff [5] [s⁻¹] | kon [5] [M⁻¹ s⁻¹] |
| --- | --- | --- | --- | --- | --- | --- | --- | --- | --- |
| Antibody A11 (antibody, human IgG4 S228P, kappa) heavy: not shown light: DIQMTQSPSSLSASVGDRVTITCRASQDINNYLAWFQQKPGKAPKSLIYTASSLHSGVPSKFSGSGSGTDFTLTISSLQPEDFATYYCQQYVSYPYTFGQGTKLEIKRTVAAPSVFIFPPSDEQLKSGTASVVCLLNNFYPREAKVQWKVDNALQSGNSQESVTEQDSKDSTYSLSSTLTLSKADYEKHKVYACEVTHQGLSSPVTKSFNRGEC | 410 | 298 | 204 | – | – | – | – | – | – |
| Antibody A1 (antibody, human IgG1, kappa, L234A L235A, V domains shown) VH: EVQLVESGGGLVQPGGSLRLSCAASGFTLSSYDMHWVRQAPGKGLEWVSAIGTAGDTYYTGSVKGRFTISRENAKNSLYLQMNSLRADDTAVYYCVRGGVWDDAFDIWGQGTMVTVSS VL: DIQMTQSPSSLSASVGDRVTITCRASQGINNYAAWFQQKPGKAPKSLIYTASSLHSGVPSKFSGSGSGTDFTLTISSLQPEDFATYYCQQYVSYPYTFGQGTKLEIKR | 780 | 523 | 427 | 8.6 | 0.00625 | 727000 | 18.6 | 0.0162 | 869000 |
| Antibody A3 (antibody, human IgG1, kappa, L234A L235A, V domains shown) VH: EVQLVESGGGLVQPGGSLRLSCAASGFTLSSYDMHWVRQATGKGLEWVSAIGTAGDTYYTGSVKGRFTISRENAKNSLYLQMNSLRASDTAVYYCVRGGVWDDAFDIWGQGTMVTVSS VL: DIQMTQSPSSLSASVGDRVTITCRASQGINNYAAWFQQKPGKAPKSLIYTASSLHSGVPSKFSGSGSGTDFTLTISSLQPEDFATYYCQQYVSYPYTFGQGTKLEIKR | 857 | 560 | 480 | 9.06 | 0.00661 | 730000 | 19.6 | 0.0178 | 907000 |
| Antibody A7 (antibody, human IgG1, kappa, L234A L235A, V domains shown) VH: EVQLVESGGGLVQPGGSLRLSCAASGFTLSSYDMHWVRQATGKGLEWVSAIGTAGDTYYTGSVKGRFTISRENAKNSLYLQMNSLRAGDTAVYYCVRGGVWDDAFDIWGQGTMVTVSS VL: DIQMTQSPSSLSASVGDRVTITCRASQGINNYAAWFQQKPGKAPKSLIYTASSLHSGVPSKFSGSGSGTDFTLTISSLQPEDFATYYCQQYVSYPYTFGQGTKLEIKR | 741 | 588 | 466 | 9.38 | 0.00672 | 716000 | 20.4 | 0.019 | 933000 |
| Antibody A2 (antibody, human IgG1, kappa, L234A L235A, V domains shown) VH: EVQLVESGGGLVQPGGSLRLSCAASGFTLSSYDMHWVRQATGKGLEWVSAIGTAGDTYYTGSVKGRFTISRENAKNSLYLQMNSLRAADTAVYYCVRGGVWDDAFDIWGQGTMVTVSS VL: DIQMTQSPSSLSASVGDRVTITCRASQGINNYAAWFQQKPGKAPKSLIYTASSLHSGVPSKFSGSGSGTDFTLTISSLQPEDFATYYCQQYVSYPYTFGQGTKLEIKR | 887 | 556 | 469 | 9.39 | 0.00685 | 729000 | 20.9 | 0.0184 | 883000 |
| Antibody A4 (antibody, human IgG1, kappa, L234A L235A, V domains shown) VH: EVQLVESGGGLVQPGGSLRLSCAASGFTLSSYDMHWVRQAPGKGLEWVSAIGTAGDTYYTGSVKGRFTISRENAKNSLYLQMNSLRAADTAVYYCVRGGVWDDAFDIWGQGTMVTVSS VL: DIQMTQSPSSLSASVGDRVTITCRASQGINNYAAWFQQKPGKAPKSLIYTASSLHSGVPSKFSGSGSGTDFTLTISSLQPEDFATYYCQQYVSYPYTFGQGTKLEIKR | 669 | 488 | 420 | – | – | – | – | – | – |
| Antibody A6 (antibody, human IgG1, kappa, L234A L235A, V domains shown) VH: EVQLVESGGGLVQPGGSLRLSCAASGFTLSSYDMHWVRQAPGKGLEWVSAIGTAGDTYYTGSVKGRFTISRENAKNSLYLQMNSLRAEDTAVYYCVRGGVWDDAFDIWGQGTMVTVSS VL: DIQMTQSPSSLSASVGDRVTITCRASQGINNYAAWFQQKPGKAPKSLIYTASSLHSGVPSKFSGSGSGTDFTLTISSLQPEDFATYYCQQYVSYPYTFGQGTKLEIKR | 684 | 521 | 420 | 8.28 | 0.00634 | 766000 | 18.1 | 0.0171 | 947000 |
| Antibody A5 (antibody, human IgG1, kappa, L234A L235A, V domains shown) VH: EVQLVESGGGLVQPGGSLRLSCAASGFTLSSYDMHWVRQAPGKGLEWVSAIGTAGDTYYTGSVKGRFTISRENAKNSLYLQMNSLRASDTAVYYCVRGGVWDDAFDIWGQGTMVTVSS VL: DIQMTQSPSSLSASVGDRVTITCRASQGINNYAAWFQQKPGKAPKSLIYTASSLHSGVPSKFSGSGSGTDFTLTISSLQPEDFATYYCQQYVSYPYTFGQGTKLEIKR | 665 | 517 | 415 | 8.75 | 0.00598 | 684000 | 17.8 | 0.0162 | 909000 |
| Antibody A10 (antibody, human IgG1, kappa, L234A L235A) heavy: not shown light: DIQMTQSPSSLSASVGDRVTITCRASQDINNYLAWFQQKPGKAPKSLIYTASSLHSGVPSKFSGSGSGTDFTLTISSLQPEDFATYYCQQYVSYPYTFGQGTKLEIKRTVAAPSVFIFPPSDEQLKSGTASVVCLLNNFYPREAKVQWKVDNALQSGNSQESVTEQDSKDSTYSLSSTLTLSKADYEKHKVYACEVTHQGLSSPVTKSFNRGEC | 388 | 282 | 203 | – | – | – | – | – | – |
| Antibody A8 (antibody, human IgG1, kappa, L234A L235A, V domains shown) VH: EVQLVESGGGLVQPGGSLRLSCAASGFTLSSYDMHWVRQAPGKGLEWVSAIGTAGDTYYTGSVKGRFTISRENAKNSLYLQMNSLRAGDTAVYYCVRGGVWDDAFDIWGQGTMVTVSS VL: DIQMTQSPSSLSASVGDRVTITCRASQGINNYAAWFQQKPGKAPKSLIYTASSLHSGVPSKFSGSGSGTDFTLTISSLQPEDFATYYCQQYVSYPYTFGQGTKLEIKR | 639 | 520 | 415 | 8.53 | 0.00604 | 708000 | 18.8 | 0.0162 | 859000 |
